PMC3408419 (Molecular Biology of the Cell, 2012)
Several values for one entry are separate records, joined by “and”; a condition that tells them apart may be missing. Equal values may be shown once.

B1: Sec13/31 complex (complex)
chain 1: MVVIANAHNELIHDAVLDYYGKRLATCSSDKTIKIFEVEGETHKLIDTLTGHEGPVWRVDWAHPKFGTILASCSYDGKVLIWKEENGRWSQIAVHAVHSASVNSVQWAPHEYGPLLLVASSDGKVSVVEFKENGTTSPIIIDAHAIGVNSASWAPATIEEDGEHNGTKESRKFVTGGADNLVKIWKYNSDAQTYVLESTLEGHSDWVRDVAWSPTVLLRSYLASVSQDRTCIIWTQDNEQGPWKKTLLKEEKFPDVLWRASWSLSGNVLALSGGDNKVTLWKENLEGKWEPAGEVHQ
chain 2: MVKLAEFSRTATFAWSHDKIPLLVSGTVSGTVDANFSTDSSLELWSLLAADSEKPIASLQVDSKFNDLDWSHNNKIIAGALDNGSLELYSTNEANNAINSMARFSNHSSSVKTVKFNAKQDNVLASGGNNGEIFIWDMNKCTESPSNYTPLTPGQSMSSVDEVISLAWNQSLAHVFASAGSSNFASIWDLKAKKEVIHLSYTSPNSGIKQQLSVVEWHPKNSTRVATATGSDNDPSILIWDLRNANTPLQTLNQGHQKGILSLDWCHQDEHLLLSSGRDNTVLLWNPESAEQLSQFPARGNWCFKTKFAPEAPDLFACASFDNKIEVQTLQNLTNTLDEQETETKQQESETDFWNNVSREESKEKPTVFHLQAPTWYGEPSPAAHWAFGGKLVQITPDGKGVSITNPKISGLESNTTLSEALKTKDFKPLINQRLVKVIDDVNEEDWNLLEKLSMDGTEEFLKEALAFDNDESDAQDDANNEKEDDGEEFFQQIETNFQPEGDFSLSGNIEQTISKNLVSGNIKSAVKNSLENDLLMEAMVIALDSNNERLKESVKNAYFAKYGSKSSLSRILYSISKREVDDLVENLDVSQWKFISKAIQNLYPNDIAQRNEMLIKLGDRLKENGHRQDSLTLYLAAGSLDKVASIWLSEFPDLEDKLKKDNKTIYEAHSECLTEFIERFTVFSNFINGSSTINNEQLIAKFLEFINLTTSTGNFELATEFLNSLPSDNEEVKTEKARVLIASGKSLPAQNPATATTSKAKYTNAKTNKNVPVLPTPGMPSTTSIPSMQAPFYGMTPGASANALPPKPYVPATTTSAPVHTEGKYAPPSQPSMASPFVNKTNSSTRLNSFAPPPNPYATATVPATNVSTTSIPQNTFAPIQPGMPIMGDYNAQSSSIPSQPPINAVSGQTPHLNRKANDGWNDLPLKVKEKPSRAKAVSVAPPNILSTPTPLNGIPANAASTMPPPPLSRAPSSVSMVSPPPLHKNSRVPSLVATSESPRASISNPYAPPQSSQQFPIGTISTANQTSNTAQVASSNPYAPPPQQRVATPLSGGVPPAPLPKASNPYAPTATTQPNGSSYPPTGPYTNNHTMTSPPPVFNKPPTGPPPISMKKRSNKLASIEQNPSQGATYPPTLSSSASPLQPSQPPTLASQVNTSAENVSHEIPADQQPIVDFLKEELARVTPLTPKEYSKQLKDCDKRLKILFYHLEKQDLLTQPTIDCLHDLVALMKEKKYKEAMVIHANIATNHAQEGGNWLTGVKRLIGIAEATLN

Key:
[1] = biological target: MBP-Sec16-mOrange (S. cerevisiae) (UniProt P48415); test: single-molecule photobleaching
Sec23/24 complex = Sec23/24 complex (S. cerevisiae, UniProt P15303;P40482); test: liposome flotation
Sequence of Sec23/24 complex (P15303 whole entry, chain 1 of 2): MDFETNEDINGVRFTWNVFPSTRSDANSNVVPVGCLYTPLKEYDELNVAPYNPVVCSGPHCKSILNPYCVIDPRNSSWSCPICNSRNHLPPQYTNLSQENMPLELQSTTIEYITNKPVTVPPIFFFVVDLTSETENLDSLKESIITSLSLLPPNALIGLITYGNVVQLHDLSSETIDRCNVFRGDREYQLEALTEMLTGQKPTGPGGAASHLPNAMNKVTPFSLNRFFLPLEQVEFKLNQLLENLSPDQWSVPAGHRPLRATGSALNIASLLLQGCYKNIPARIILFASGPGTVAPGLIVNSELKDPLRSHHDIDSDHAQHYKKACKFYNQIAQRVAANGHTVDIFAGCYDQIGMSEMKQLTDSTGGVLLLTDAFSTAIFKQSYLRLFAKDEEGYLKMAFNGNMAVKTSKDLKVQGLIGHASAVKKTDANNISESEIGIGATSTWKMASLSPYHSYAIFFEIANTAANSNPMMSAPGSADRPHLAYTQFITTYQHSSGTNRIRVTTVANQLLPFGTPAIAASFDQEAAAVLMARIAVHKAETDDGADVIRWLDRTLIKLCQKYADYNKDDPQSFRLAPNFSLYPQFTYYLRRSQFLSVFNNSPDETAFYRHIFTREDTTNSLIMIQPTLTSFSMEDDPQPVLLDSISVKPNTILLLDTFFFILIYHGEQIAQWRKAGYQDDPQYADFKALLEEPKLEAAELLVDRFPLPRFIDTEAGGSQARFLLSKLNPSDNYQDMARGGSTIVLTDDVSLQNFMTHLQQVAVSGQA
Sequence of Sec23/24 complex (P40482 whole entry, chain 2 of 2): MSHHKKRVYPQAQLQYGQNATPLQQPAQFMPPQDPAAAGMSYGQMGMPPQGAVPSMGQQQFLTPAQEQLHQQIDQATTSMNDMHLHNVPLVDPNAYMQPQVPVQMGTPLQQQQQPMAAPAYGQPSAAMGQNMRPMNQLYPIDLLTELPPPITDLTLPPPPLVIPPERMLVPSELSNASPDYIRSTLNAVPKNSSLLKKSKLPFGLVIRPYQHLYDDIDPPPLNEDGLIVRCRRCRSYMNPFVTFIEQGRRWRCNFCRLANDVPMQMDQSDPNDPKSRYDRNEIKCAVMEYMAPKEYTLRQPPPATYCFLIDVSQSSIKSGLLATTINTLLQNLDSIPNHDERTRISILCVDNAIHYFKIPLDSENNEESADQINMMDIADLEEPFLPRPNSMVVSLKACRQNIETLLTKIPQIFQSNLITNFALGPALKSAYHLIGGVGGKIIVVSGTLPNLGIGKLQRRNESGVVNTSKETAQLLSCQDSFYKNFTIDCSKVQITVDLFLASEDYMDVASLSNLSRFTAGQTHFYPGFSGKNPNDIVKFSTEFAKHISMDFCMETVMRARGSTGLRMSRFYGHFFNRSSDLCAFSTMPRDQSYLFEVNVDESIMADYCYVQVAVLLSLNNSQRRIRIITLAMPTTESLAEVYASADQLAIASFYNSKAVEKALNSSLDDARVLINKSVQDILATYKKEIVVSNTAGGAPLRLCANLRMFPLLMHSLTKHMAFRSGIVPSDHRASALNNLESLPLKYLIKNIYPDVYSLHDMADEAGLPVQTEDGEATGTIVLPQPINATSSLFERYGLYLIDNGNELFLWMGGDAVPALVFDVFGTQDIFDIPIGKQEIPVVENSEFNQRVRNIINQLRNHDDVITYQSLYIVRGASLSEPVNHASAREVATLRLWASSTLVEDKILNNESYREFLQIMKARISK

| Molecule | stoichiometry N [1] | binding result (Sec23/24 complex) |
| --- | --- | --- |
| MBP-Sec16-mOrange, P48415 1-2195 | 4 and 6 |  |
| B1 |  | binds |
